According to patent US20260216365A1, “ANTIBODY-DRUG CONJUGATES AGAINST THE RECEPTOR TYROSINE KINASE EPHA5” (Rutgers, The State University of New Jersey, priority 2021, published 2026):
Changes are numbered by the printed parent chain. Values joined by “and” are separate entries in the source; they are usually repeats but may differ in a detail not shown here. Equal values may be shown once.

What was measured:
[1] = Thermal ramp stability (UNcle, Sypro Orange fluorescence and static light scattering); assay type: physicochemical
From the text: Thermal ramp stability experiments (Tm and Tagg) are well established methods for ranking proteins and formulations for stability. A protein's denaturation profile provides information about its thermal stability and represents a structural ‘fingerprint’ for assessing structural and formulation buffer modifications. A widely used measure of the thermal structural stability of a protein is the temperature at which it unfolds from the native state to a denatured state. For many proteins, this unfolding process occurs over a narrow temperature range and the mid-point of this transition is termed ‘melting temperature’ or ‘Tm’. To determine the melting temperature of a protein, UNcle measures the fluorescence of Sypro Orange (which binds to exposed hydrophobic regions of proteins) as the protein undergoes conformational changes.
Samples for each variant were formulated in PBS and Sypro Orange at a final concentration of 1 mg/mL. 9 μL of each sample mixture was loaded in duplicate into UNi microcuvettes. Samples were subjected to a thermal ramp from 25-95° C., with a ramp rate of 0.3° C./minute and excitation at 473 nm. Full emission spectra were collected from 250-720 nm, and the area under the curve between 510-680 nm was used to calculate the inflection points of the transition curves (Tonset and Tm). Monitoring of static light scattering (SLS) at 473 nm allowed the detection of protein aggregation, and Tagg (onset of aggregation) was calculated from the resulting SLS profiles. Thermal stability values determined lie in a broad range from 57.9 to 69.6° C. (Tm1), 55.1 to 65.2° C. (Tonset) and 65.6 to 70.2° C. (Tagg) with the humanized leads generally showing improved profiles when compared to the chimeric antibody. […] All humanized antibodies appear to have a higher Tm1, Tonset and Tagg compared to the chimeric antibody.

[2] = biological target: T1, recombinant human EphA5 (rhEphA5) antigen (Homo sapiens, UniProt P54756); experiment: Biacore multi-cycle kinetic analysis of purified antibodies, 1:1 model; assay type: binding; conditions: for binding to EphA5 relative to the chimeric antibody (VH0/VK0): purified antibodies, multi-cycle kinetics
T1 construct: purchased R and D systems 3036-A5
T1 sequence (P54756 25-573 limits assumed): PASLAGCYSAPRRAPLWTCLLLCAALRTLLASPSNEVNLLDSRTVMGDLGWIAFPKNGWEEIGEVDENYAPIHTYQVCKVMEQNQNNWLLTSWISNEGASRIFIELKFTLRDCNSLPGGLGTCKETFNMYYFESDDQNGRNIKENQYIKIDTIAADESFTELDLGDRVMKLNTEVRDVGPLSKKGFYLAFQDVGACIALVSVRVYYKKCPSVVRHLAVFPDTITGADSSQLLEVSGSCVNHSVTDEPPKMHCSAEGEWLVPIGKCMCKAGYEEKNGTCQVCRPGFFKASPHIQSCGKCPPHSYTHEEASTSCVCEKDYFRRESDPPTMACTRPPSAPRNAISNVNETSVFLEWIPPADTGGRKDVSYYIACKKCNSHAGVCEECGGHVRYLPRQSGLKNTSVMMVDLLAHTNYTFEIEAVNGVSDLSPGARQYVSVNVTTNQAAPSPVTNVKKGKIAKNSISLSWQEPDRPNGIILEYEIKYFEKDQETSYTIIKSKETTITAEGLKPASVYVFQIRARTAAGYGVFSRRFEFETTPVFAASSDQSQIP
Procedure: In order to assess the binding of the six lead humanized variants to rhEphA5 antigen, multi-cycle kinetic analysis (FIG. 68) was performed on purified material. Kinetic experiments were performed at 25° C. on a Biacore T200 running Biacore T200 Control software V2.0.1 and Evaluation software V3.0 (GE Healthcare, Uppsala, Sweden).
HBS-P+ (GE Healthcare, Uppsala, Sweden), supplemented with 1% BSA w/v (Sigma, Dorset, UK) was used as running buffer as well as for ligand and analyte dilutions. Purified lead antibodies were diluted to 0.5 μg/mL in running buffer and at the start of each cycle, loaded onto Fc2, Fc3 and Fc4 of an anti-human IgG CM5 sensor chip (GE Healthcare, Little Chalfont, UK). Antibodies were captured at a flow rate of 10 μl/min to give an immobilization level (RL) of ~50 RU. The surface was then allowed to stabilize.
Multi-cycle kinetic data was obtained using recombinant EphA5 as the analytes injected at a flow rate of 30 μl/min to minimize any potential mass transfer effects. A five point, three-fold dilution range from 1.11 nM to 270 nM of EphA5 was prepared in running buffer. For each concentration, the association phases were monitored for 210 seconds and the dissociation phase was measured for 900 seconds. Regeneration of the sensor chip surface was conducted between cycles using two injections of 3 M MgCl2. Multiple repeats of a blank and of EphA5 were programmed into the kinetic run in order to check the stability of both the surface and analyte over the kinetic cycles.
The signal from the reference channel Fc1 (no IgG captured) was subtracted from that of Fc2, Fc3 and Fc4 to correct for bulk effect and differences in non-specific binding to a reference surface. The signal from each IgG blank run (IgG captured but no antigen) was subtracted to correct for differences in surface stability. The double referenced sensorgrams were fitted with the Langmuir (1:1) binding model where the closeness of fit of the data to the model is evaluated using the Chi square value which describes the deviation between the experimental and fitted (observed and expected) curves. The fitting algorithm seeks to minimize the Chi square value.
A summary of the kinetic constants determined from the 1:1 model fitted curves is shown in FIG. 19 with fitted curves shown in FIG. 20.

H226 cells (EphA5−) = experiment: Flow cytometry analysis of cell binding, EphA5-negative control cells; set-up: species or system human; conditions: starting 10 μg/ml, three-fold serial dilution
Procedure: (§1) A H460 cell line stably expressing EphA5 (provided by Rutgers) was used, alongside H226 cells as a negative control, to test for antibody binding in a flow cytometry assay. The cell lines were first assessed for target expression using 10 μg/ml of the murine 11C12 provided by Rutgers) and MolgG1 non-binging control (Biolegend, California, US). Goat anti-mouse Alexa Fluor 647 (Thermo Fisher, Loughborough, UK) was used for antibody detection.
(§2) For cell binding assays, both cell lines were resuspended in FACS buffer (PBS+1% BSA+0.1% sodium azide) and seeded in 96 well U bottom plates at 1×105 (100 μl) cells per well. The chimeric and six purified humanized variants were tested in the assay alongside the 11C12 murine positive control, MolgG1 and HulgG1 non-binding controls. Samples were prepared at a starting concentration of 10 μg/ml in FACS buffer and underwent a four-fold seven point serial dilution for testing with H460 cells and a three-fold three point serial dilution for the H226 cells. […] Median fluorescence intensity (MFI) was measured using an Attune NxT Flow Cytometer (Thermo Fisher, Loughborough, UK) and 10,000 gated events were acquired per sample. For data analysis, live cell populations were gated based on the forward and side scatter dot plot allowing the Alexa Fluor 647 MFI values to be measured in the RL1 channel.

[3] = biological target: T2, H460 cell line stably expressing EphA5 (Homo sapiens, UniProt P54756); experiment: Flow cytometry analysis of cell binding, EphA5-positive cells; conditions: starting 10 μg/ml, four-fold serial dilution, 4° C. 30 minutes
T2 construct: A H460 cell line stably expressing EphA5 (provided by Rutgers) was used; endogenous in cells; host or cells: H460 human lung carcinoma cells (provided by Rutgers)
T2 sequence (P54756 25-1037): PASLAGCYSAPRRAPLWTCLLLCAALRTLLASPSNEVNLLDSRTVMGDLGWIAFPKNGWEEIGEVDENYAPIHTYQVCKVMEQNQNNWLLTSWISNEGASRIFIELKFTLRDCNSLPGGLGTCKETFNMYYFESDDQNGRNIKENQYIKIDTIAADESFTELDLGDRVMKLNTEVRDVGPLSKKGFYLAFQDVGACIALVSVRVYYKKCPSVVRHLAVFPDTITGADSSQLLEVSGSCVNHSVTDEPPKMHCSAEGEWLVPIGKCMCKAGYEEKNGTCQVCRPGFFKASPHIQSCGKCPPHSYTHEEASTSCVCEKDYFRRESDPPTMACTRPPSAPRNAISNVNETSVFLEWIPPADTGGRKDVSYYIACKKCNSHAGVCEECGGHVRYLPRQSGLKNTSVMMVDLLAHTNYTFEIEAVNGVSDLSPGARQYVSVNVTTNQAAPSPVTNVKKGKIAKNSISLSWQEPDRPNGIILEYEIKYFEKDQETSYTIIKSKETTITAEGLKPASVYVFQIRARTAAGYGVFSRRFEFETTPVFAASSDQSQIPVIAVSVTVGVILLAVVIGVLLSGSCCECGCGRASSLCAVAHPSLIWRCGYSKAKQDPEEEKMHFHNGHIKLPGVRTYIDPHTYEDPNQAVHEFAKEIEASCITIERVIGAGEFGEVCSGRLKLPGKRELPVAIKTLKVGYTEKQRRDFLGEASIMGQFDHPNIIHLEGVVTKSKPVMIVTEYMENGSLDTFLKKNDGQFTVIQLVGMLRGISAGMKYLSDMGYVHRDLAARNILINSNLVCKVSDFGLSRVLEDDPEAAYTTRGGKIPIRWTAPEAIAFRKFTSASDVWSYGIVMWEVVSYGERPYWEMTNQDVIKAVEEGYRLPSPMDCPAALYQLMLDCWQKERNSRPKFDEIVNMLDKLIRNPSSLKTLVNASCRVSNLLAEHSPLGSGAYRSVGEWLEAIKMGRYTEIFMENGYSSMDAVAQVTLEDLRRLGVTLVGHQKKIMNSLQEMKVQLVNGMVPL
Procedure: as §1, §2

B1: VH0/VK0: chimeric anti-EphA5 antibody, murine 11C12 variable regions (VH SEQ ID NO:1, VL SEQ ID NO:8), human IgG1/kappa constant regions (antibody, V domains shown)
VH: EVTLKESGGGLVQPGGSRKLSCAASGFTFSTFGIHWVRQAPEKGLEWVAYISGASTTIYYADTVKGRFTISRDNPKNTLFLQMTSLRSEDTAMYYCARYGTSFPYGLDYWGQGTSVTVSS
VL: DIVMTQSPGSLAVSLGQRATISCKASQSVDYDGDSYMNWYQQKPGQPPKLLIYGASNLESGIPARFSGSGSGTDFTLNIHPVEEEDAASYYCQQSNEDPFTFGSGTKLEIK
modifications: human IgG1/kappa constant regions without entry
Average Tm2 (° C.) ([1]; average of duplicates): 65.83 °C
Average Tonset (° C.) ([1]; average of duplicates): 55.1 °C
Average Tm1 (° C.) ([1]; average of duplicates, 1 mg/mL in PBS): 57.9 °C
Average Tagg 473 (° C.) ([1]; average of duplicates, SLS at 473 nm): 65.6 °C
Tonset (° C.) ([1]; single replicate): 54.92 °C and 55.23 °C
Tm2 (° C.) ([1]; single replicate, 1 mg/mL in PBS): 65.83 °C
Tm1 (° C.) ([1]; single replicate, 1 mg/mL in PBS, ramp 25-95° C.): 57.83 °C and 57.87 °C
Tagg 473 (° C.) ([1]; single replicate, SLS at 473 nm): 65.72 °C and 65.60 °C
number of thermal transitions detected ([1]; thermal ramp 25-95° C.): two transitions
kd ([2]; Biacore T200, 25° C., IgG captured on anti-human IgG chip): 0.0015 s⁻¹
RMAX ([2]; fitted 1:1 model): 47.8

B2: VH5/VK4: humanized anti-EphA5 IgG1/kappa antibody; VH SEQ ID NO:6, VL SEQ ID NO:12 (antibody, V domains shown)
VH: EVQLVESGGGLVQPGGSLKLSCAASGFTFSTFGIHWVRQAPGKGLEWVAYISGASTTIYYADSVKGRFTISRDNSKNTLYLQMNSLRAEDTAVYYCARYGTSFPYGLDYWGQGTLVTVSS
VL: DIVMTQSPDSLAVSLGERATINCKSSQSVDYDGDSYMNWYQQKPGKAPKLLIYGASNLESGIPDRFSGSGSGTDFTLTISRLEPEDAASYYCQQSNEDPFTFGQGTKLEIK
ranking by Tagg (SLS profiles) ([1]; among the chimeric and six lead humanized variants): highest Tagg values
binding to EphA5 relative to the chimeric antibody (VH0/VK0) [2]: within two-fold of the chimeric antibody

B3: 11C12: anti-human EphA5 monoclonal murine antibody, parental antibody and positive control (antibody, V domains shown)
VH: B1 VH
VL: B1 VL
binding to H226 (EphA5−) cells (H226 cells (EphA5−)): no binding
binding to H460 (EphA5+) cells, MFI dose response [3]: bound to the positive cell line in a concentration dependent manner

B4: VH3/VK4: humanized anti-EphA5 IgG1/kappa antibody; VH SEQ ID NO:4, VL SEQ ID NO:12 (antibody, V domains shown)
VH: B2 VH with S63T, A88S, V93M
VL: B2 VL
binding to EphA5 relative to the chimeric antibody (VH0/VK0) [2]: within two-fold of the chimeric antibody

B5: VH4/VK4: humanized anti-EphA5 IgG1/kappa antibody; VH SEQ ID NO:5, VL SEQ ID NO:12 (antibody, V domains shown)
VH: B2 VH with S63T
VL: B2 VL
binding to EphA5 relative to the chimeric antibody (VH0/VK0) [2]: within two-fold of the chimeric antibody

B6: VH5/VK2: humanized anti-EphA5 IgG1/kappa antibody; VH SEQ ID NO:6, VL SEQ ID NO:10 (antibody, V domains shown)
VH: B2 VH
VL: B2 VL with S25A
binding to EphA5 relative to the chimeric antibody (VH0/VK0) [2]: within two-fold of the chimeric antibody
